Results as given in patent US8247227B2, “Dendritic cell precursors” (The Cleveland Clinic Foundation, priority 2006, dated 2012).

Columns and labels:
BM cells [1] = assay: Step 2 culture: spontaneous DC maturation without exogenous maturation stimuli; format: cell-based, mouse; conditions: after Step 1 conditioning, no exogenous maturation stimuli
From the text: DC differentiation typically arrests at the immature stage unless DCs are exposed to additional signals such as CD40 ligation, calcium ionophore or TLR agonists (Xu, S. et al. J. Immunol. 171, 2251-2261 (2003); Bonifaz, L. et al. J. Exp. Med. 196, 1627-1638 (2002); Napolitani, G. et al. Nat. Immunol. 6, 769-776 (2005); Czerniecki, B J et al. J. Immunol. 159, 3823-3837 (1997); Mailliard, R B et al. Cancer Res. 64, 5934-5937 (2004)). […] Instead, uniform upregulation of MHC Class II and CD11c ensued within hours of transfer from Flt3L+IL6 into GMCSF, followed by upregulation of CD40, co-stimulatory molecules and CCR7 between 48 and 72 hours of Step 2 culture.
(§1) Step 2 was initiated (0 hr) in CM, rmGMCSF and optionally rmIL4. Step 2 cultures were performed in 24 well cluster plates, 4 million BM cells per well in 2 ml CM. DC1 polarization stimuli such as CpG (ODN 1826, 5 μM) and LPS 50 ng/ml were added between 18-24 hrs, and cells harvested at 40-44 hrs for analyses. When included, immunosuppressive agents rmIL10, rmVEGF, rhTGFβ1 or PGE2 were added between 0 and 24 hrs of Step 2 culture at doses specified in Results. Alternatively, particulate tumor cells, either viable unirradiated, viable irradiated (10,000 cGy), or killed freeze-thawed lysate (Cohen, P A et al. Cancer Res. 54, 1055-1058 (1994)), were added to Step 2 BM cells. Viable tumor cells were sometimes labelled with CFSE (Molecular Probes, Eugene, Oreg.) to allow their identification and exclusion during subsequent FACS analyses (Peng, L. et al. J. Immunol. 169, 4811-4821 (2002)).

[2] = single agent; cited from earlier work
[3] = system: CD34^pos stem cell subpopulation; assay: Step 1 proliferative culture of fresh bone marrow: numeric expansion; format: cell-based, mouse; conditions: fresh mouse BM, 6-7 day Step 1 culture
Procedure: FIG. 6 is a chart showing numeric expansion resulting from the exposure of bone marrow (BM) suspensions to various factors. BM freshly harvested from C57BL/6 mice was cultured for 6 days in the specific factors, then harvested and counted. Each bar represents 3-11 determinations±s.d., each performed in synchronous comparison to at least five other groups. […] Synergistic expansions reflected a 35-80 fold selective outgrowth of the CD34^pos subpopulation (see FIG. 10);
FIG. 10 is a histogram showing gross numeric expansion of fresh bone marrow (BM) reflective of selective outgrowth of the CD34^pos subpopulation. Freshly prepared mouse BM cell suspensions were stained with FITC-anti-CD34 mAb to enable isolation of CD34^pos and CD34^neg subpopulations by a FACSAria cell sorter. CD34^pos cells initially represented 10.8±7% of the total BM cells. The following groups were then cultured for 6 days in 75 cm^2 flasks, either in Flt3L+SCF+IL6 (striped bars) or in Flt3L+IL6 (solid bars): “Unfractionated BM” (12-15 million per flask); “FACS sorted CD34^neg cells” (12-15 million per flask); “FACS sorted CD34^pos cells” (2-3 million per flask); or “FACS sorted, unirradiated CD34^pos cells plus irradiated (3,000 cGy) CD34^neg cells.” Labels above bars indicate fold numeric expansion during the 6 day culture. […] (Not done=group not done);
We cultured fresh mouse BM in two stages, a 6-7 day proliferative phase (Step 1) and a 2-3 day post-proliferative phase (Step 2). […] FACS sorting experiments confirmed that such expansion represented a net 35-80 fold proliferation of the minor (<12%) CD34^pos stem cell subpopulation, with rapid dropout of the initially CD34^neg subpopulation (FIG. 10). Stem cell proliferation persisted well past day 7 if medium and factors were adequately replenished (not shown).
Single cell suspensions were prepared from the femurs and tibias of healthy mice (Kuriyama, H. et al. Dev. Biol. (Basel) 116, 169-178 (2004)). Following RBC lysis by ammonium chloride, no further processing was performed. […] BM cells were normally cultured for 6-7 days, harvested, counted, and washed twice in PBS prior to initiation of Step 2 cultures.

BM cells [4] = assay: Step 2 culture: DC maturation and IL-12 production upon CpG+LPS after Step 1 conditioning; format: cell-based, mouse; conditions: CpG+LPS stimulation
From the text: Following Step 1 conditioning, BM cultures were washed thoroughly and exposed to TLR agonists to test the cells' potential for DC maturation and IL-12 production during Step 2 culture. Since TLR9 and TLR4 were invariably expressed by mouse BM cells at the end of Step 1 cultures (not shown), we standardly employed CpG (ODN 1826) and lipopolysaccharide (LPS) to stimulate coordinate activation of MyD88 and TRIF pathways (Napolitani, G. et al. Nat. Immunol. 6, 769-776 (2005)).
as §1
For routine multicolor FACS analyses, BM cells were cultured in anti-CD32 mAb plus normal mouse IgG to block FcRs, then directly stained with conjugated specific mAbs or isotype controls as listed in the figures (BD-Pharmingen, Mountain View, Calif.) (Peng, L. et al. J. Immunol. 165, 5738-5749 (2000)). When additionally assessing IL12 production at the cellular level, the last 16 hrs of Step 2 culture were performed in monensin (Golgistop™, BD-PharMingen). Then, following FcR block and direct staining of surface molecules, cells were fixed in formalin and permeabilized in tween (CytoPerm/CytoFix™, PharMingen), then additionally stained with PE-anti-mouse IL12p40 (BD-Pharmingen) or isotype control.
Assessments of supernatant contents of mIL12p70 heterodimer were performed with BD-Pharmingen reagents. mIFNα and mIFNβ ELISAs were performed with kits from PBL Biomedical Laboratories (New Brunswick, N.J.).

mouse tumors = conditions: single agent; cited from earlier work

Row | Molecule | spontaneous DC maturation during Step 2 culture (BM cells [1]) | myeloproliferative activity in animals [2] | numeric expansion during Step 1 culture [3] | Step 2 response to TLR agonists (DC maturation) after Step 1 conditioning (BM cells [4]) | therapeutic properties against established mouse tumors (mouse tumors)
1 | Flt3 ligand (protein, UniProt P49771 27-235, looked up, recombinant human Flt3 ligand, gift of Amgen) Fms-related tyrosine kinase 3 …: TQDCSFQHSPISSDFAVKIRELSDYLLQDYPVTVASNLQDEELCGGLWRLVLAQRWMERLKTVAGSKMQGLLERVNTEIHFVTKCAFQPPPSCLRFVQTNISRLLQETSEQLVALKPWITRQNFSRCLELQCQPDSSTLPPPWSPRPLEATAPTAPQPPLLLLLLLPVGLLLLAAAWCLHWQRTRRRTPRPGEQVPPVPSPQDLLLVEH | spontaneous tendency to complete DC maturation | highly myeloproliferative | yielded only a fraction of culture input | nearly global licensing for pronounced TLR reactivity | –
2 | interleukin-6 (protein, UniProt P08505 25-211, looked up) Interleukin-6: FPTSQVRRGDFTEDTTPNRPVYTTSQVGGLITHVLWEIVEMRKELCNGNSDCMNNDDALAENNLKLPEIQRNDGCYQTGYNQEICLLKISSGLLEYHSYLEYMKNNLKDNKKDKARVLQRDTETLIHIFNQEVKDLHKIVLPTPISNALLTDKLESQKEWLRTKTIQFILKSLEEFLKVTLRSTRQT | – | – | – | – | extremely potent therapeutic properties
